The target in assay [1] is JRFL SOSIP trimer (HIV-1 subtype B, truncated at residue 663), negatively selected (HIV-1 subtype B strain JRFL). The experiment in a line: negative-stain EM; negatively selected SOSIP trimers incubated with a ten molar excess of Fab or four-domain sCD4 at RT for 1 hour; 2% uranyl formate; 2D class averages (occupancy) and 3D reconstructions.
Assay [2] has as its target 16055 SOSIP trimer (HIV-1 subtype C, truncated at residue 663), negatively selected (HIV-1 subtype C strain 16055). Described as above.
Assay [3] has as its target JRFL SOSIP trimer (HIV-1 subtype B, truncated at residue 663), negatively selected (HIV-1 subtype B strain JRFL).

The values that follow come from publication PMC4287557.

PGT151 Fab, sequence (VH): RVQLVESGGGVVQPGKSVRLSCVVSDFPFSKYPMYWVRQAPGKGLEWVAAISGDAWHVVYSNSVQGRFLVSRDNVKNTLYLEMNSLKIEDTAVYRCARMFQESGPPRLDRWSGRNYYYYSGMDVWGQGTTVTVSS
PGT151 Fab, sequence (VL): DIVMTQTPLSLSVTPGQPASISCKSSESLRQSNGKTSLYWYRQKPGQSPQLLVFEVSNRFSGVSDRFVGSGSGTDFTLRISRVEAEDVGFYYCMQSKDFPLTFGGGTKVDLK

On to PGT151 Fab, for which, in assay [1], the percent of trimers with one Fab bound came out at 28%, the percent of trimers with three Fabs bound was 11% and the percent of trimers with two Fabs bound turned out to be 36%. Also, in assay [2], the percent of trimers with one Fab bound is 34%, the percent of trimers with three Fabs bound worked out at 0% and the percent of trimers with two Fabs bound was found to be 20%. The same substance came in with an increase of the melting temperature (Tm) of the JRFL SOSIP-Fab complex over the trimer alone, DSF in assay [3] of 2.1 °C.
